This assay concerns the target Gβ1/Gγ2(C68S) complex (human, UniProt P62873 1-340; P59768 1-71, C68S). The experiment in a line: SEC.

The values that follow come from article PMC5959768 (Cell, 2018).

Gβ1/Gγ2(C68S) complex, sequence (P62873 whole entry, chain 1 of 2): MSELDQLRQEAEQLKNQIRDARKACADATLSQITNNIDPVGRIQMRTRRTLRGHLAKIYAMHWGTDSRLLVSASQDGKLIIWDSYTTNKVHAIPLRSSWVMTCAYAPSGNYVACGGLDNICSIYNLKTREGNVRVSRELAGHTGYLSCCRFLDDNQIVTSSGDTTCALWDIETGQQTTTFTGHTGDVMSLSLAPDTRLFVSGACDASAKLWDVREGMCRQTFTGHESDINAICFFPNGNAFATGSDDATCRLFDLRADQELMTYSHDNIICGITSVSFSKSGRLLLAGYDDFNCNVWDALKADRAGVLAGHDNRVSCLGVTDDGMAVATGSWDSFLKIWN
Gβ1/Gγ2(C68S) complex, sequence (P59768 whole entry C68S, chain 2 of 2): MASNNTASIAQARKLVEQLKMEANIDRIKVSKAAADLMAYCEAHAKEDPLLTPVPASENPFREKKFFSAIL

B1: Wild type human Gαs (residues 7-380 of the short isoform) (natural protein, UniProt P63092-2 7-380, looked up)
chain: SKTEDQRNEEKAQREANKKIEKQLQKDKQVYRATHRLLLLGAGESGKSTIVKQMRILHVNGFNGDSEKATKVQDIKNNLKEAIETIVAAMSNLVPPVELANPENQFRVDYILSVMNVPDFDFPPEFYEHAKALWEDEGVRACYERSNEYQLIDCAQYFLDKIDVIKQADYVPSDQDLLRCRVLTSGIFETKFQVDKVNFHMFDVGGQRDERRKWIQCFNDVTAIIFVVASSSYNMVIREDNQTNRLQEALNLFKSIWNNRWLRTISVILFLNKQDLLAEKVLAGKSKIEDYFPEFARYTTPEDATPEPGEDPRVTRAKYFIRDEFLRISTASGDGRHYCYPHFTCAVDTENIRRVFNDCRDIIQRMHLRQYELL
As for B1, the binding result was “binds”.
